Experimental findings from US20040077526A1 are described below.

A value given as a limit tells only on which side of the number the result lay.

In experiment [1] the target is murine SR-BI (mSR-BI), class B type I scavenger receptor (murine) (UniProt Q61009). Put plainly: self-competition: unlabeled HDL (500 µg protein/ml) against [125I,3H]hHDL3 (10 µg protein/ml) on Y1-BS1 cells.
For experiment [2] the target is unchanged. As to the kind of experiment: cell association of 125I-HDL with ldlA[mSR-BI] cells at 37 C.
Experiment [3] shares this target. As to the kind of experiment: time course of cell association of 125I-HDL with ldlA[mSR-BI] cells at 37 C.

UniProt Q61009, sequence (Q61009 whole entry): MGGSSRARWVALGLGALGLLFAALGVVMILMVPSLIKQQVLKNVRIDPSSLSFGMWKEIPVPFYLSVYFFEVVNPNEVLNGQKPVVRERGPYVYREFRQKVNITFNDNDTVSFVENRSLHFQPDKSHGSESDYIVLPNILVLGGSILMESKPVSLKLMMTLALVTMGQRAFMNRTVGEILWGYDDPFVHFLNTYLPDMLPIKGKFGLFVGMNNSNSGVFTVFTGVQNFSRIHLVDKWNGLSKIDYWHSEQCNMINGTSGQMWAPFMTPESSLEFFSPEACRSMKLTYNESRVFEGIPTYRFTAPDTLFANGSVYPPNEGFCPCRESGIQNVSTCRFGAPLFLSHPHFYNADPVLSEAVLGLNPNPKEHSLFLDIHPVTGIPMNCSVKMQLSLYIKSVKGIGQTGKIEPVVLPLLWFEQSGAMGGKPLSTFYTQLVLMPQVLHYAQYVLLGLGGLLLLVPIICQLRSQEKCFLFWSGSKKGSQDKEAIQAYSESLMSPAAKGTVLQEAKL

In experiment [1], “human HDL3 (hHDL3, 1.125-1.210 g/ml) labeled with [125I]dilactitol tyramine and [3H]cholesteryl oleolyl ether” had a reduction of cell association of HDL of 85%.
In experiment [2], “human HDL (high density lipoprotein prepared from human plasma by zonal centrifugation) (from UniProt P02647 25-267; P02652 24-100)” gave a fraction of the total label bound to the transfected cells in 5 hours of under 0.5%. For the same substance, in experiment [3], the cell-associated 125I-HDL at steady state (ng protein/mg cell protein) was 200.
